The supplement of paper PMC7877785
± gives the uncertainty stated by the source.

Test: self-splicing fitness, log relative to wild type (ln ratio); higher = more splicing; Tetrahymena group I intron in knt gene, E. coli kanamycin selection, DiMSum; sequences stand for … in CUCUCU…GGAGGGAAAAGUUAUCAGGCAUGCACCUGGUAGCUAGUCUUUAAACCAAUAGAUUGCAUCGGUUUAAAAGGCAAGACCGUCAAAUUGCGGGAAAGGGGUCAACAGCCGUUCAGUACCAAGUCUCAGGGGAAACUUUGAGAUGGCCUUGCAAAGGGUAUGGUAAUAAGCUGACGGACAUGGUCCUAACCACGCAGCCAAGUCCUAAGUCAACAGAUCUUCUGUUGAUAUGGAUGCAGUUCACAGACUAAAUGUCGGUCGGGGAAGAUGUAUUCUUCUCAUAAGAUAUAGUCGGACCUCUCCUUAAUGGGAGCUAGCGGAUGAAGUGAUGCAACACUGGAGCCGCUGGGAACUAAUUUGUAUGCGAAAGUAUAUUGAUUAGUUUUGGAGUACUCGUGGUCG
Method in brief: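 Pooled colonies went to amplicon sequencing on an Illumina HiSeq 2500 after six replicate transformations. The plates were LB agar with 100 μg/mL carbenicillin, 50 μM IPTG and 0.2% rhamnose, with or without 25 μg/mL kanamycin, incubated overnight at 37°C or 30°C. The E. coli BL21(DE3) library had all eight P1ex-region intron nucleotides randomised, the intron placed in the knt kanamycin-resistance gene on pET-22b(+). DiMSum fitness is the error-weighted combination of replicate fold changes, kanamycin against none, normalised to wild type.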

Row | Sequence | self-splicing fitness (ln) (30 °C) | self-splicing fitness (ln) (37 °C)
1 | GGGGAGCAAUAUUACGGCUA | -0.686 ± 0.18 | -0.291 ± 0.17
2 | GGGGAGCAAUAUUACGGGAA | – | -1.38 ± 0.49
3 | GGGGAGCAAUAUUACGGGUA | -2.64 ± 0.26 | -2.25 ± 0.34
4 | GGGGAGCAAUAUUACGGUAA | -2.05 ± 0.28 | -2.82 ± 0.3
5 | GGGGAGCAAUAUUACGGUCA | – | -0.676 ± 0.18
6 | GGGGAGCAAUAUUACGUAAC | -2.06 ± 0.46 | -0.204 ± 0.39
7 | GGGGAGCAAUAUUACGUAGA | -2.43 ± 0.31 | -1.7 ± 0.4
8 | GGGGAGCAAUAUUACGUCAU | – | -2.07 ± 0.39
9 | GGGGAGCAAUAUUACGUUAG | -3.73 ± 0.43 | -0.485 ± 0.33
10 | GGGUAGCAAUAUUACGAGGC | -3.89 ± 0.47 | -2.19 ± 0.25
11 | GGGUAGCAAUAUUACGCUGA | -2.05 ± 0.15 | 0.00831 ± 0.17
12 | GGGUAGCAAUAUUACGGAAU | -0.368 ± 0.12 | -0.661 ± 0.19
13 | GGGUAGCAAUAUUACGGCCG | -0.902 ± 0.086 | -0.295 ± 0.15
14 | GGGUAGCAAUAUUACGGCCU | -3.57 ± 0.38 | -2.14 ± 0.46
15 | GGGUAGCAAUAUUACGGGAU | -3.17 ± 0.22 | -2.04 ± 0.23
16 | GGGUAGCAAUAUUACGGUUC | -0.821 ± 0.095 | 0.258 ± 0.13
17 | GGGUAGCAAUAUUACGUCAG | – | -0.355 ± 0.32
18 | GGGUAGCAAUAUUACGUCGC | -1.04 ± 0.23 | 0.272 ± 0.21
19 | GGGUAGCAAUAUUACGUCUA | -0.297 ± 0.15 | 0.226 ± 0.16
20 | GGGUAGCAAUAUUACGUGGA | -3.45 ± 0.2 | -2.02 ± 0.097
21 | GGGUAGCAAUAUUACGUUCA | 0.0201 ± 0.096 | -0.0805 ± 0.12
22 | GGUAAGCAAUAUUACGACGG | -3.74 ± 0.33 | -2.84 ± 0.34
23 | GGUAAGCAAUAUUACGAGGG | -2.38 ± 0.14 | -2.98 ± 0.24
24 | GGUAAGCAAUAUUACGAUAG | -3.14 ± 0.2 | -2.14 ± 0.24
25 | GGUAAGCAAUAUUACGCAAG | -3.39 ± 0.26 | -2.03 ± 0.22
26 | GGUAAGCAAUAUUACGCACU | – | -2.23 ± 0.2
27 | GGUAAGCAAUAUUACGCCCC | -3.4 ± 0.45 | –

Row | Sequence | self-splicing fitness (ln) (30 °C) | self-splicing fitness (ln) (37 °C)
28 | GGUAAGCAAUAUUACGCCCU | -1.86 ± 0.28 | -1.35 ± 0.28
29 | GGUAAGCAAUAUUACGCCGC | -3.46 ± 0.43 | -1.41 ± 0.27
30 | GGUAAGCAAUAUUACGCUAA | -2.29 ± 0.18 | 0.0407 ± 0.15
31 | GGUAAGCAAUAUUACGCUAU | -2.53 ± 0.17 | -2.05 ± 0.27
32 | GGUAAGCAAUAUUACGGAGA | -3.47 ± 0.23 | -2.8 ± 0.22
33 | GGUAAGCAAUAUUACGGAUU | -0.823 ± 0.094 | -0.646 ± 0.11
34 | GGUAAGCAAUAUUACGGGAU | -2.82 ± 0.27 | -0.913 ± 0.21
35 | GGUAAGCAAUAUUACGGGCG | -0.129 ± 0.097 | -0.279 ± 0.13
36 | GGUAAGCAAUAUUACGUACU | -1.82 ± 0.32 | –
37 | GGUAAGCAAUAUUACGUCCU | -1.17 ± 0.2 | -0.999 ± 0.23
38 | GGUCAGCAAUAUUACGAAAC | -0.257 ± 0.22 | -0.396 ± 0.22
39 | GGUCAGCAAUAUUACGAUUG | -0.673 ± 0.073 | 0.0247 ± 0.097
40 | GGUCAGCAAUAUUACGCGAA | -0.889 ± 0.069 | 0.00884 ± 0.088
41 | GGUCAGCAAUAUUACGCGUC | -1.46 ± 0.17 | 0.149 ± 0.19
42 | GGUCAGCAAUAUUACGCGUG | -0.989 ± 0.077 | -0.272 ± 0.083
43 | GGUCAGCAAUAUUACGGAAC | -1.04 ± 0.1 | -0.383 ± 0.14
44 | GGUCAGCAAUAUUACGGACU | -1.49 ± 0.44 | –
45 | GGUCAGCAAUAUUACGGAUU | -0.77 ± 0.079 | -0.499 ± 0.1
46 | GGUCAGCAAUAUUACGGCCG | -1.83 ± 0.33 | -1.64 ± 0.33
47 | GGUCAGCAAUAUUACGGCGA | 0.307 ± 0.14 | 0.838 ± 0.14
48 | GGUCAGCAAUAUUACGGGUU | -1.25 ± 0.083 | -0.194 ± 0.089
49 | GGUCAGCAAUAUUACGGUCA | -0.669 ± 0.13 | 0.518 ± 0.13
50 | GGUCAGCAAUAUUACGGUGU | -1.44 ± 0.15 | 0.00529 ± 0.14
51 | GGUCAGCAAUAUUACGUCAA | -0.511 ± 0.071 | 0.0808 ± 0.082
52 | GGUCAGCAAUAUUACGUGAG | 0.0154 ± 0.061 | 0.241 ± 0.085
53 | GGUCAGCAAUAUUACGUGGG | -2.15 ± 0.089 | -2.38 ± 0.15
54 | GGUCAGCAAUAUUACGUUCU | -0.13 ± 0.1 | 0.22 ± 0.11

Row | Sequence | self-splicing fitness (ln) (30 °C) | self-splicing fitness (ln) (37 °C)
55 | GGUGAGCAAUAUUACGACAC | -0.5 ± 0.18 | 0.114 ± 0.22
56 | GGUGAGCAAUAUUACGAGAG | -4.03 ± 0.27 | -2.38 ± 0.18
57 | GGUGAGCAAUAUUACGAGCG | -0.194 ± 0.11 | 0.303 ± 0.14
58 | GGUGAGCAAUAUUACGAUGA | -3.32 ± 0.29 | -2.29 ± 0.21
59 | GGUGAGCAAUAUUACGAUGU | -2.19 ± 0.15 | -1.69 ± 0.23
60 | GGUGAGCAAUAUUACGAUUG | -3.77 ± 0.39 | -1.79 ± 0.4
61 | GGUGAGCAAUAUUACGCAGG | -3.7 ± 0.34 | -2.07 ± 0.41
62 | GGUGAGCAAUAUUACGCGAG | – | -1.97 ± 0.18
63 | GGUGAGCAAUAUUACGCGCG | -0.933 ± 0.087 | -0.502 ± 0.12
64 | GGUGAGCAAUAUUACGCGGA | -2.35 ± 0.19 | -1.57 ± 0.15
65 | GGUGAGCAAUAUUACGCUAU | -1.77 ± 0.32 | -2.94 ± 0.4
66 | GGUGAGCAAUAUUACGGAGG | -1.6 ± 0.27 | –
67 | GGUGAGCAAUAUUACGGAUC | -0.748 ± 0.076 | 0.263 ± 0.11
68 | GGUGAGCAAUAUUACGGAUG | -3.73 ± 0.22 | -2.62 ± 0.22
69 | GGUGAGCAAUAUUACGGCGU | -1.29 ± 0.14 | -0.494 ± 0.17
70 | GGUGAGCAAUAUUACGGGAC | -3.63 ± 0.29 | -1.85 ± 0.19
71 | GGUGAGCAAUAUUACGGGGA | – | -2.42 ± 0.28
72 | GGUGAGCAAUAUUACGGUCG | -1.29 ± 0.077 | -0.612 ± 0.1
73 | GGUGAGCAAUAUUACGGUUU | -2.12 ± 0.13 | -1.25 ± 0.18
74 | GGUGAGCAAUAUUACGUGGU | -3.51 ± 0.47 | -2.36 ± 0.24
75 | GGUGAGCAAUAUUACGUUGU | -4.18 ± 0.31 | -2.04 ± 0.25
76 | GGUUAGCAAUAUUACGAAAA | -2.05 ± 0.41 | 0.949 ± 0.28
77 | GGUUAGCAAUAUUACGACAG | -1.69 ± 0.2 | -0.85 ± 0.23
78 | GGUUAGCAAUAUUACGACGG | -2.32 ± 0.17 | -1.33 ± 0.22
79 | GGUUAGCAAUAUUACGACUU | -0.187 ± 0.12 | 1.17 ± 0.16
80 | GGUUAGCAAUAUUACGAGAU | – | -1.66 ± 0.33
